Measurements reported in patent US20240376185A1 (SMIVET B V, published 2024).
Where two headings read alike, the source gives them in different places.

Tests used:
[1] = biological target: T1, tetanus neurotoxin (TeNT), authentic tetanus holotoxin (Clostridium tetani, UniProt P04958 2-1315); experiment: GT1b-TeNT inhibition ELISA
Target sequence in this assay (P04958 2-457 limits assumed, chain 1 of 2): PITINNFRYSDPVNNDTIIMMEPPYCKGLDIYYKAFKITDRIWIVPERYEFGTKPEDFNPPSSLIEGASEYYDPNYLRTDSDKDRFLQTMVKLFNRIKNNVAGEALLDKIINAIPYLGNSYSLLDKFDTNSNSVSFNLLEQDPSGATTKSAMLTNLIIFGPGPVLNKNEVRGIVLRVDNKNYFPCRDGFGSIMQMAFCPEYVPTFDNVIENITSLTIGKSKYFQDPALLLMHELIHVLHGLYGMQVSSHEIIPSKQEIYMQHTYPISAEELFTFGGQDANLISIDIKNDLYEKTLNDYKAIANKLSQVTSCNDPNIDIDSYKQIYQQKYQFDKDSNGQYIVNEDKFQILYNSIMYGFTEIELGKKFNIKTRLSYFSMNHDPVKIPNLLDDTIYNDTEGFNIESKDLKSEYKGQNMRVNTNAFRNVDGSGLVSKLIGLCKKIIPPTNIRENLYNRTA
Target sequence in this assay (P04958 458-1315 limits assumed, chain 2 of 2): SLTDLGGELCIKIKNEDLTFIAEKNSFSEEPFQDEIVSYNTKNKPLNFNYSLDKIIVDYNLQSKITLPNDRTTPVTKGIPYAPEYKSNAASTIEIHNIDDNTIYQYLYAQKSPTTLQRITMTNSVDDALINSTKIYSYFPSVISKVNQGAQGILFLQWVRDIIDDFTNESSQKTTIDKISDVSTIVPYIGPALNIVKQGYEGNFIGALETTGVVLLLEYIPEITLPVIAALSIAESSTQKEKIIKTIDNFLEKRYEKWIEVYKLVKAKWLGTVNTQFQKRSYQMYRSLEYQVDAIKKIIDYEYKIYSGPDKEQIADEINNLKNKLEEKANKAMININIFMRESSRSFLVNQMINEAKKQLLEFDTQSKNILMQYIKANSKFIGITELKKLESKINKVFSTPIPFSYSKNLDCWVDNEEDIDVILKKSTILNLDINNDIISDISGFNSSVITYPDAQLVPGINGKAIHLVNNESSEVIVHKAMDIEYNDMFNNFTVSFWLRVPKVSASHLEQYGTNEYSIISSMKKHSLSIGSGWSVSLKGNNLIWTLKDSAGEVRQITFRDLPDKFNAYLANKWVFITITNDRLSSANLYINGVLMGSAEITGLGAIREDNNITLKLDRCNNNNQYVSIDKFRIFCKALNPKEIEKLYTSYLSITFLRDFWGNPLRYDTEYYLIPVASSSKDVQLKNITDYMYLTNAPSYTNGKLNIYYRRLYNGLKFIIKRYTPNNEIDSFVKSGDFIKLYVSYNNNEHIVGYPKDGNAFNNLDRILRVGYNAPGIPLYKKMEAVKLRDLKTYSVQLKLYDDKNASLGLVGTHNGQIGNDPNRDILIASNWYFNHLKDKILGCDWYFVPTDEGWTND

[2] = biological target: T1, tetanus neurotoxin (TeNT), authentic …; experiment: GT1b-TeNT inhibition ELISA; remark: listed apart in the source
Target sequence in this assay (P04958 2-457 limits assumed, chain 1 of 2): as the sequence (P04958 2-457 limits assumed, chain 1 of 2) above
Target sequence in this assay (P04958 458-1315 limits assumed, chain 2 of 2): as the sequence (P04958 458-1315 limits assumed, chain 2 of 2) above

[3] = biological target: horse albumin (horse Alb) (horse, UniProt P35747 25-607); experiment: BLI ([…] (0.11 nm), […] (0.01 nm)
[4] = biological target: T1, tetanus neurotoxin (TeNT), authentic …; experiment: ELISA: directly coated TeNT, anti-his6 PO
Target sequence in this assay (P04958 2-457 limits assumed, chain 1 of 2): as the sequence (P04958 2-457 limits assumed, chain 1 of 2) above
Target sequence in this assay (P04958 458-1315 limits assumed, chain 2 of 2): as the sequence (P04958 458-1315 limits assumed, chain 2 of 2) above

[5] = biological target: T1, tetanus neurotoxin (TeNT), authentic …; experiment: ELISA: directly coated TeNT, anti-his6 PO; remark: listed apart in the source
Target sequence in this assay (P04958 2-457 limits assumed, chain 1 of 2): as the sequence (P04958 2-457 limits assumed, chain 1 of 2) above
Target sequence in this assay (P04958 458-1315 limits assumed, chain 2 of 2): as the sequence (P04958 458-1315 limits assumed, chain 2 of 2) above

[6] = biological target: T1, tetanus neurotoxin (TeNT), authentic …; experiment: ELISA: directly coated TeNT, goat anti-llama Ig PO
Target sequence in this assay (P04958 2-457 limits assumed, chain 1 of 2): as the sequence (P04958 2-457 limits assumed, chain 1 of 2) above
Target sequence in this assay (P04958 458-1315 limits assumed, chain 2 of 2): as the sequence (P04958 458-1315 limits assumed, chain 2 of 2) above

[7] = biological target: T1, tetanus neurotoxin (TeNT), authentic …; experiment: ELISA: directly coated TeNT, goat anti-llama Ig PO; remark: listed apart in the source
Target sequence in this assay (P04958 2-457 limits assumed, chain 1 of 2): as the sequence (P04958 2-457 limits assumed, chain 1 of 2) above
Target sequence in this assay (P04958 458-1315 limits assumed, chain 2 of 2): as the sequence (P04958 458-1315 limits assumed, chain 2 of 2) above

[8] = biological target: T1, tetanus neurotoxin (TeNT), authentic …; experiment: BLI (Octet Red96): biotinylated SDA on SA sensor, TeNT as analyte
[9] = biological target: T1, tetanus neurotoxin (TeNT), authentic …; experiment: bridging ELISA: coated TeNT, SDA, biotinylated TeNT, StrepPO (bivalent binding)
[10] = biological target: T1, tetanus neurotoxin (TeNT), authentic …; experiment: as above; remark: listed apart in the source
[11] = biological target: T1, tetanus neurotoxin (TeNT), authentic …
[12] = biological target: T1, tetanus neurotoxin (TeNT), authentic …; experiment: BLI (Octet Red96); avidity (bivalent for TeNT); format for this SDA not told
[13] = biological target: T1, tetanus neurotoxin (TeNT), authentic …; experiment: BLI (Octet Red96); estimate of the footnote with kdis set to 1.0E-07; avidity
[14] = biological target: T1, tetanus neurotoxin (TeNT), authentic …; experiment: cell-based or functional assay
Target sequence in this assay (P04958 2-457 limits assumed): as the sequence (P04958 2-457 limits assumed, chain 1 of 2) above

[15] = biological target: T1, tetanus neurotoxin (TeNT), authentic …; experiment: BLI (Octet Red96): biotinylated TeNT on SA sensor, SDA as analyte
[16] = biological target: T1, tetanus neurotoxin (TeNT), authentic …; experiment: BLI (Octet Red96); estimate of the footnote with kdis set to 1.0E-07
Target sequence in this assay (P04958 2-457 limits assumed): as the sequence (P04958 2-457 limits assumed, chain 1 of 2) above

dog serum albumin = biological target: T2, dog serum albumin (dog, UniProt P49822 25-608); experiment: BLI, biotinylated SDA on SA sensors
T2 construct: mature; also called dog Alb; Canine albumin

horse serum albumin = biological target: T3, horse serum albumin (horse, UniProt P35747 25-607); experiment: BLI, biotinylated albumin on SA sensors
T3 construct: mature; also called horse Alb; Equine albumin

human serum albumin = biological target: T4, human serum albumin (human, UniProt P02768 25-609); experiment: BLI, biotinylated albumin on SA sensors
T4 construct: mature; also called human Alb

mouse albumin [17] = biological target: T5, mouse albumin (mouse, UniProt P07724 25-608); experiment: ELISA on coated albumin
swine albumin [18] = biological target: T6, swine albumin (swine, UniProt P08835 25-607); experiment: ELISA on coated albumin
T6 construct: also called Porcine albumin

human albumin [19] = biological target: T7, human albumin (human, UniProt P02768 25-609); experiment: ELISA on coated albumin
sheep albumin [20] = biological target: T8, sheep albumin (sheep, UniProt P14639 25-607); experiment: ELISA on coated albumin
bovine albumin [21] = biological target: T9, bovine albumin (bovine, UniProt P02769 25-607); experiment: ELISA on coated albumin
chicken ovalbumin [22] = biological target: T10, chicken ovalbumin (chicken, UniProt P01012 2-386); experiment: ELISA on coated albumin
T10 construct: also called Chicken Alb
T10 sequence (looked up): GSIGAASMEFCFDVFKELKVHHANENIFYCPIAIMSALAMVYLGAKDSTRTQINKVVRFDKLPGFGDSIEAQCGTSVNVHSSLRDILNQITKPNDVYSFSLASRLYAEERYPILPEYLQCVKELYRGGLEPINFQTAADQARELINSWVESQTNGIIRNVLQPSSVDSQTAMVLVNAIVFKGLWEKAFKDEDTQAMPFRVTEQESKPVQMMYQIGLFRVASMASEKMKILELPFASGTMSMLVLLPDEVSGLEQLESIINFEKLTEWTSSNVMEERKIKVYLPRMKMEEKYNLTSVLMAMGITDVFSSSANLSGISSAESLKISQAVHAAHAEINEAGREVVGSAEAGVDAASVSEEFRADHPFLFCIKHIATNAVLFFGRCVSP

horse albumin [23] = biological target: T11, horse albumin (horse, UniProt P35747 25-607); experiment: ELISA on coated albumin
T11 construct: also called Equine albumin

dog albumin [24] = biological target: T12, dog albumin (dog, UniProt P49822 25-608); experiment: ELISA on coated albumin
T12 construct: also called Canine albumin

cat albumin [25] = biological target: T13, cat albumin (cat, UniProt P49064 25-608); experiment: ELISA on cat albumin captured from serum
T13 construct: also called Feline albumin

mouse albumin [26] = biological target: T5, mouse albumin; experiment: ELISA; A450 below 0.2 at highest SDA concentration
swine albumin [27] = biological target: T6, swine albumin; experiment: ELISA; A450 below 0.2 at highest SDA concentration
cat albumin [28] = biological target: T13, cat albumin; experiment: ELISA; A450 below 0.2 at highest SDA concentration
human albumin [29] = biological target: T7, human albumin; experiment: ELISA; A450 below 0.2 at highest SDA concentration
sheep albumin [30] = biological target: T8, sheep albumin; experiment: ELISA; A450 below 0.2 at highest SDA concentration
bovine albumin [31] = biological target: T9, bovine albumin; experiment: ELISA; A450 below 0.2 at highest SDA concentration
chicken ovalbumin [32] = biological target: T10, chicken ovalbumin; experiment: ELISA; A450 below 0.2 at highest SDA concentration
horse albumin [33] = biological target: T11, horse albumin; experiment: ELISA; A450 below 0.2 at highest SDA concentration
dog albumin [34] = biological target: T12, dog albumin; experiment: ELISA; A450 below 0.2 at highest SDA concentration

T11 sequence (P35747 25-607 limits assumed): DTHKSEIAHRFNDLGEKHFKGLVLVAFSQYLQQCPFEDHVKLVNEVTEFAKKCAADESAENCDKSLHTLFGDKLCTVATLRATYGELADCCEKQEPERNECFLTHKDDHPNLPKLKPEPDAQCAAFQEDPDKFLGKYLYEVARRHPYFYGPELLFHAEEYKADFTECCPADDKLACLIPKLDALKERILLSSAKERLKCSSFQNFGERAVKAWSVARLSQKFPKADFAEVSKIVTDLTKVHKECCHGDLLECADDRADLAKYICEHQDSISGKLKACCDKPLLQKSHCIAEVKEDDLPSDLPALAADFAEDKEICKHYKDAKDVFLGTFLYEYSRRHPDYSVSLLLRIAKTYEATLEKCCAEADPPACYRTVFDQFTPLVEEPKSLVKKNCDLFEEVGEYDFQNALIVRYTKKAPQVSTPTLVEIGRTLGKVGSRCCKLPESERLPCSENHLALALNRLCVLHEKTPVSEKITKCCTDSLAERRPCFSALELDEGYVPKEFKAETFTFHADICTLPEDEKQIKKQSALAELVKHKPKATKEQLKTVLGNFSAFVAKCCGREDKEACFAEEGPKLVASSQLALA
T5 sequence (P07724 25-608 limits assumed): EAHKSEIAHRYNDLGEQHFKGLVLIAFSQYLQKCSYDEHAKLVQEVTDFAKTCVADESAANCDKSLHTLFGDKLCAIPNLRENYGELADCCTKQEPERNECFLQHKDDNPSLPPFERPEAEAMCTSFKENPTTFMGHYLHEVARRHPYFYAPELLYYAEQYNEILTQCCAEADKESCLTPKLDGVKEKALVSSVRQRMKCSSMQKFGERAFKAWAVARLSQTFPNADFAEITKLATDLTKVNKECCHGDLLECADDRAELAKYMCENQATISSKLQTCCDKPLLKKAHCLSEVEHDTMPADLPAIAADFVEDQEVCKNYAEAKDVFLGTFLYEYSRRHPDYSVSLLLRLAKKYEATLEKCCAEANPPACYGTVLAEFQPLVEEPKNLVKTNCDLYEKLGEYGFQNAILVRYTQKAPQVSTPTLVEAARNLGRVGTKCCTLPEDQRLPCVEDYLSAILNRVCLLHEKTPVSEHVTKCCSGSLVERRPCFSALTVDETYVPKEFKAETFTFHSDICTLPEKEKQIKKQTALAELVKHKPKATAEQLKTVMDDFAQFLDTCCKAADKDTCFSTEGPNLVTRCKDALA
T6 sequence (P08835 25-607 limits assumed): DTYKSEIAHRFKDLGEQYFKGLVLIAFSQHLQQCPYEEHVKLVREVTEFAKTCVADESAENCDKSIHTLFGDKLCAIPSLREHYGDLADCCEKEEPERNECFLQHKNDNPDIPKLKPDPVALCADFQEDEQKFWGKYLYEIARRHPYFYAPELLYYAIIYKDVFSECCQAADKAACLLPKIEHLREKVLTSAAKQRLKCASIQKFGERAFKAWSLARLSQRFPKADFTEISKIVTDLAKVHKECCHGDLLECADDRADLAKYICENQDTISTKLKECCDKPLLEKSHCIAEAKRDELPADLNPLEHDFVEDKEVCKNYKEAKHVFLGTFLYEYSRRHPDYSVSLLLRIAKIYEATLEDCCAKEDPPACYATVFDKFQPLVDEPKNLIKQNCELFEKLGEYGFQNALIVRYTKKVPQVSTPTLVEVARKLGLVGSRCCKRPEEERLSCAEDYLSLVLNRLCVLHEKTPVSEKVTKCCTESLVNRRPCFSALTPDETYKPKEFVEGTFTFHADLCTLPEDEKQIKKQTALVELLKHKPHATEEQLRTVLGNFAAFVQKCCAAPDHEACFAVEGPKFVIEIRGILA
T8 sequence (P14639 25-607 limits assumed): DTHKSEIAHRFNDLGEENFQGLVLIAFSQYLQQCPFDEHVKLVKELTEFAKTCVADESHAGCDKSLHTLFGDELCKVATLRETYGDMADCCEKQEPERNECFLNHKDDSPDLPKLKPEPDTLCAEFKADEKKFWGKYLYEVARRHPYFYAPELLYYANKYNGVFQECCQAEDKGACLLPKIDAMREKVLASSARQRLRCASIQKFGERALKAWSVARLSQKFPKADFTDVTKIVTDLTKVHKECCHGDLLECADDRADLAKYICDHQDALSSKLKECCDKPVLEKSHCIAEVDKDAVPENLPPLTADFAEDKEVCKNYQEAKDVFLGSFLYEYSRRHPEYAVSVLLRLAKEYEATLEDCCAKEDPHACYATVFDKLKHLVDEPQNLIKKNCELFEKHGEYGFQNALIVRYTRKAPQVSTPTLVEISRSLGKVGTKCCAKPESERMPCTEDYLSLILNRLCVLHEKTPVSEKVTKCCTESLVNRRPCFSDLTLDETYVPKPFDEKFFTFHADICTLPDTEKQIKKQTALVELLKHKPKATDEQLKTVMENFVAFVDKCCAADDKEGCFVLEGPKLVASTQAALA
Chain of horse albumin (horse Alb) (P35747 25-607 limits assumed): as the sequence (P35747 25-607 limits assumed) above
T3 sequence (P35747 25-607): as the sequence (P35747 25-607 limits assumed) above

B1: SVT16L (VHH)
VHH: QVQLQESGGGSVQAGDSLRLSCAASGRTISNYAMGWFRQAPGKQREFVAAISRSDNTYYTDSVKGRFTISRDNAKNTLYLQMNSLKPEETAVYYCAADPNLMYESKWKYRALEAWGQGTLVTVSS
minimal absorbance value (GT1b-TeNT inhibition) [1]: 0.18 A450 | Effective SDA Concentration at A450 0.56 [2]: 21 ng/mL | binding result [3]: no binding (tested: 100 nM) | maximal absorbance value [4]: 1.56 A450 | Effective SDA Concentration at A450 0.15 [5]: 1.4 ng/mL | maximal absorbance value [6]: 0.44 A450 | Effective SDA Concentration at A450 0.15 [7]: 5 ng/mL | Kd [8]: 339 pM | koff [8]: 0.000311 s⁻¹ | kon [8]: 916000 M⁻¹ s⁻¹ | maximal absorbance value [9]: 0.18 A450 | Effective SDA Concentration at A450 0.3 [10]: > 1000 ng/mL

B2: SVT06-GS3-SVT15-3FW4M-GS2-SVG06M4-H6 (bispecific antibody)
chain: QVQLQESGGGSVQAGGSLRLSCTASELSYDDYTIAWFRRAAGEGRVEDGEGVASITKSYDRAYDNKINYGHSVKGRFTISRDNAKNTVYLQMTDLLPSDTAVYYCALDITPPGGVGASLTEGFLFDYWGQGTQVTVSSGGGGSGGGGSGGGGSQVQLQESGGGLVQTGGSLRLSCRASGRAFANYHFGWFRQAPGKDREFVASISWKGGSTYYANFALGRFTSSVDRAESSVYLQMSGLTPEDTATYYCAAHDGGDWNYHTGMDYWGQGTQVTVSSGGGGSGGGSEVQLVESGGALVQPGGSLRLSCAASGFPFSAYDMTWVRQAPGQGLEWVSTIHKSGGITTYADSVKGRFTISRDNAKNTLYLQMNNLESEDTAVYYCAKALRAHNSDYVGRNALGSWGQGTQVTVSSHHHHHH
Kd [11]: < 1 pM | koff [12]: < 1e-07 s⁻¹ | kon [12]: 69100 M⁻¹ s⁻¹ | Kd [13]: ~1.45 pM

B3: SVT03L (VHH)
VHH: QVQLQQSGGGSVQTGDSLTLSCTASGGSLNSYFVGWFRQSGGKEREFVSVIARTGRSTSYADSVKGRFTISRDNAANTVFLTMNNLRPDDTAIYYCAAVGRPGVLHLTQSYDYWGQGTQVTVSS
Kd [11]: < 1 pM | Endpoint dilution factor [14]: < 1 | SDA concentration providing full protection [14]: > 1000 nM | koff [15]: < 1e-07 s⁻¹ | kon [15]: 5.65e+06 M⁻¹ s⁻¹ | Kd [16]: ~0.0177 pM

B4: SVT15-3FW4M-GS3-SVT06-GS2-SVG13M5-H6 (bispecific antibody)
chain: QVQLQESGGGLVQTGGSLRLSCRASGRAFANYHFGWFRQAPGKDREFVASISWKGGSTYYANFALGRFTSSVDRAESSVYLQMSGLTPEDTATYYCAAHDGGDWNYHTGMDYWGQGTQVTVSSGGGGSGGGGSGGGGSQVQLQESGGGSVQAGGSLRLSCTASELSYDDYTIAWFRRAAGEGRVEDGEGVASITKSYDRAYDNKINYGHSVKGRFTISRDNAKNTVYLQMTDLLPSDTAVYYCALDITPPGGVGASLTEGFLFDYWGQGTQVTVSSGGGGSGGGSEVQLVESGGGLVQPGGSLRLSCEASGFTFDDYGMSWVRQAPGKGLEWVSSLTPNGGSTYYADSVKGRFTISRDNAKNTLYLQMNSLKPEDTALYYCAKNSYYGAMDYRGQGTQVTVSSHHHHHH
binding result (dog serum albumin): no binding (tested: 500 nM) | binding result (horse serum albumin): no binding (tested: 100 nM) | binding result (human serum albumin): no binding (tested: 100 nM)

B5: SVT06L (VHH)
VHH: QVQLQESGGGSVQAGGSLRLSCTASELSYDDYTIAWFRRAAGEGRVEDGEGVASITKSYDRAYDNKINYGHSVKGRFTISRDNAKNTVYLQMTDLLPSDTAVYYCALDITPPGGVGASLTEGFLFDYWGQGTQVTVSS
SDA Effective Concentration resulting in A450 nm = 0.2 (mouse albumin [17]): > 1000 ng/mL | maximal absorbance value at 450 nm (mouse albumin [17]): 0.073 A450 | SDA Effective Concentration resulting in A450 nm = 0.2 (swine albumin [18]): > 1000 ng/mL | maximal absorbance value at 450 nm (swine albumin [18]): 0.08 A450 | SDA Effective Concentration resulting in A450 nm = 0.2 (human albumin [19]): > 1000 ng/mL | maximal absorbance value at 450 nm (human albumin [19]): 0.065 A450 | SDA Effective Concentration resulting in A450 nm = 0.2 (sheep albumin [20]): > 1000 ng/mL | maximal absorbance value at 450 nm (sheep albumin [20]): 0.06 A450 | SDA Effective Concentration resulting in A450 nm = 0.2 (bovine albumin [21]): > 1000 ng/mL | maximal absorbance value at 450 nm (bovine albumin [21]): 0.051 A450 | SDA Effective Concentration resulting in A450 nm = 0.2 (chicken ovalbumin [22]): > 1000 ng/mL | maximal absorbance value at 450 nm (chicken ovalbumin [22]): 0.057 A450 | SDA Effective Concentration resulting in A450 nm = 0.2 (horse albumin [23]): > 1000 ng/mL | maximal absorbance value at 450 nm (horse albumin [23]): 0.056 A450 | SDA Effective Concentration resulting in A450 nm = 0.2 (dog albumin [24]): > 1000 ng/mL | maximal absorbance value at 450 nm (dog albumin [24]): 0.053 A450 | maximal absorbance value at 450 nm (cat albumin [25]): 0.099 A450 | binding result (mouse albumin [26]): no binding (tested: 1000 ng/ml) | binding result (swine albumin [27]): no binding (tested: 1000 ng/ml) | binding result (cat albumin [28]): no binding (tested: 1000 ng/ml) | binding result (human albumin [29]): no binding (tested: 1000 ng/ml) | binding result (sheep albumin [30]): no binding (tested: 1000 ng/ml) | binding result (bovine albumin [31]): no binding (tested: 1000 ng/ml) | binding result (chicken ovalbumin [32]): no binding (tested: 1000 ng/ml) | binding result (horse albumin [33]): no binding (tested: 1000 ng/ml) | binding result (dog albumin [34]): no binding (tested: 1000 ng/ml)
